This passage reports %Dimer (covalent) and %HMWO (covalent high-molecular-weight oligomers) results from article PMC3399080.

Assay [1] has as its target Recombinant human insulin oxidized by metal-catalyzed oxidation (copper(II)/ascorbate) (human). In words: SEC; insulin oxidized in 50 mM PB, pH 7.4, 3 h at room temperature; Insulin HMWP column, mobile phase 1 g/L L-arginine in water/acetonitrile/glacial acetic acid 65:20:15, which dissociates non-covalent aggregates; UV 276 nm; covalent dimers and oligomers only.
Assay [2] has the same target. The assay is described as follows: SEC; insulin oxidized in 50 mM sodium citrate, pH 3.0, then exchanged into 50 mM PB, pH 7.4, and left 12 h at room temperature; same column and dissociating mobile phase; UV 276 nm; covalent aggregates only.
For assay [3] the target is unchanged. The assay is described as follows: SEC; insulin oxidized in 50 mM sodium citrate, pH 3.0, 3 h at room temperature; same column and dissociating mobile phase; UV 276 nm; covalent aggregates only.
Assay [4] has the same target. The assay is described as follows: SEC; insulin oxidized in 250 mM ammonium bicarbonate, pH 8.0, 3 h at room temperature (ammonia competes for Michael addition); same column and dissociating mobile phase; UV 276 nm; covalent aggregates only.

In the case of “Recombinant human insulin oxidized by metal-catalyzed oxidation (copper(II)/ascorbate) (natural protein)”, the %Dimer (covalent) is 18.8% in assay [1], 9.3% in assay [2], 0.8% in assay [3] and 3.9% in assay [4]. In addition, the %HMWO (covalent high-molecular-weight oligomers) in assay [1] was found to be 6.8%; in assay [2] it was 1.9%.
